Consider 1 molecule from patent CN113817056A (CHONGQING PREC BIOTECH CO LTD; CHONGQING JINGZHUN BIO …, dated 2021).

In assay [1] the target is T1, hCD70-hFc (human, UniProt P32970 39-193, limits assumed).
T1 construct: the order here follows the printed name; not shown: human immunoglobulin Fc (hFc)
T1 sequence (looked up): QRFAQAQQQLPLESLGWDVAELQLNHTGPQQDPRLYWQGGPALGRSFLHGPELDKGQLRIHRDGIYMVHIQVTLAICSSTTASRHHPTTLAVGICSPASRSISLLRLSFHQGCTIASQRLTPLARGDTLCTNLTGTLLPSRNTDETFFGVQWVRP
As to the kind of experiment: BLI, scFv on HIS1K sensor, hCD70-hFc analyte; row for 12.5 nM (same fit value in all rows). On the technique in general: In BLI a coated tip is dipped into the sample, and binding shifts an interference pattern.

Assay [2] concerns the target T1, hCD70-hFc. The experiment in a line: BLI, scFv on HIS1K sensor, hCD70-hFc analyte; row for 25 nM (same fit value in all rows).
Assay [3] concerns the target T1, hCD70-hFc. As to the kind of experiment: BLI, scFv on HIS1K sensor, hCD70-hFc analyte; row for 50 nM (same fit value in all rows).
For assay [4], the target named is T1, hCD70-hFc. As to the kind of experiment: BLI, scFv on HIS1K sensor, hCD70-hFc analyte; row for 100 nM (same fit value in all rows).

B1: 靶向CD70 ScFv (scFv, V domains shown)
VH: EVQLVQSGPEVKKPGASVKVSCKASGYTFTDYYMNWVRQMHGKGLEWMGVINPYNGGTDYNQKFKGRVTITADKSTSTAYMELSSLRSEDTAVYYCARSVYDYPFDYWGQGTLVTVSS
VL: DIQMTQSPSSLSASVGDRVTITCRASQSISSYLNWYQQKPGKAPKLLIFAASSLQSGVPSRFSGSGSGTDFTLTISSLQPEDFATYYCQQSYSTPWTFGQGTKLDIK
On to B1, for which the dissociation constant Kd with hCD70-hFc [1], with hCD70-hFc [2], with hCD70-hFc [3] and in the assay with hCD70-hFc [4] was 21.4 nM each time. Also, the koff with hCD70-hFc [1], with hCD70-hFc [2], in the assay with hCD70-hFc [3] and in the assay with hCD70-hFc [4] was 0.0016 s⁻¹ throughout. The kon in the assay with hCD70-hFc [1], with hCD70-hFc [2], with hCD70-hFc [3] and with hCD70-hFc [4] was 74000 M⁻¹ s⁻¹ each time.
